Test results from patent US10647739B2, “Flavonoids O-A-glucosylated on the B cycle, method for the production thereof and uses” (Institut National de la Recherche Agronomique, priority 2014, dated 2020).
Changes are numbered by the printed parent chain. In names and notes the source's numbering stands.

B1: V331T: ASNp amylosucrase single mutant (protein, UniProt Q9ZEU2 1-636, looked up, variant V331T)
Amylosucrase: MLTPTQQVGLILQYLKTRILDIYTPEQRAGIEKSEDWRQFSRRMDTHFPKLMNELDSVYGNNEALLPMLEMLLAQAWQSYSQRNSSLKDIDIARENNPDWILSNKQVGGVCYVDLFAGDLKGLKDKIPYFQELGLTYLHLMPLFKCPEGKSDGGYAVSSYRDVNPALGTIGDLREVIAALHEAGISAVVDFIFNHTSNEHEWAQRCAAGDPLFDNFYYIFPDRRMPDQYDRTLREIFPDQHPGGFSQLEDGRWVWTTFNSFQWDLNYSNPWVFRAMAGEMLFLANLGVDILRMDAVAFIWKQMGTSCENLPQAHALIRAFNAVMRIAAPATFFKSEAIVHPDQVVQYIGQDECQIGYNPLQMALLWNTLATREVNLLHQALTYRHNLPEHTAWVNYVRSHDDIGWTFADEDAAYLGISGYDHRQFLNRFFVNRFDGSFARGVPFQYNPSTGDCRVSGTAAALVGLAQDDPHAVDRIKLLYSIALSTGGLPLIYLGDEVGTLNDDDWSQDSNKSDDSRWAHRPRYNEALYAQRNDPSTAAGQIYQGLRHMIAVRQSNPRFDGGRLVTFNTNNKHIIGYIRNNALLAFGNFSEYPQTVTAHTLQAMPFKAHDLIGGKTVSLNQDLTLQPYQVMWLEIA
B2: V331G: ASNp amylosucrase single mutant (protein, UniProt Q9ZEU2 1-636, looked up, variant V331G)
Amylosucrase: B1 Amylosucrase with T331G
B3: V331D: ASNp amylosucrase single mutant (protein, UniProt Q9ZEU2 1-636, looked up, variant V331D)
Amylosucrase: B1 Amylosucrase with T331D
B4: V331W: ASNp amylosucrase single mutant (protein, UniProt Q9ZEU2 1-636, looked up, variant V331W)
Amylosucrase: B1 Amylosucrase with T331W
B5: V331H: ASNp amylosucrase single mutant (protein, UniProt Q9ZEU2 1-636, looked up, variant V331H)
Amylosucrase: B1 Amylosucrase with T331H
B6: V331E: ASNp amylosucrase single mutant (protein, UniProt Q9ZEU2 1-636, looked up, variant V331E)
Amylosucrase: B1 Amylosucrase with T331E
B7: V331F: ASNp amylosucrase single mutant (protein, UniProt Q9ZEU2 1-636, looked up, variant V331F)
Amylosucrase: B1 Amylosucrase with T331F
B8: V331K: ASNp amylosucrase single mutant (protein, UniProt Q9ZEU2 1-636, looked up, variant V331K)
Amylosucrase: B1 Amylosucrase with T331K
B9: V331C: ASNp amylosucrase single mutant (protein, UniProt Q9ZEU2 1-636, looked up, variant V331C)
Amylosucrase: B1 Amylosucrase with T331C
B10: V331I: ASNp amylosucrase single mutant (protein, UniProt Q9ZEU2 1-636, looked up, variant V331I)
Amylosucrase: B1 Amylosucrase with T331I
B11: V331Y: ASNp amylosucrase single mutant (protein, UniProt Q9ZEU2 1-636, looked up, variant V331Y)
Amylosucrase: B1 Amylosucrase with T331Y
B12: R446Q: ASNp amylosucrase single mutant, SEQ ID NO: 8 (protein, listed as Neisseria polysaccharea)
chain: SPNSQYLKTRILDIYTPEQRAGIEKSEDWRQFSRRMDTHFPKLMNELDSVYGNNEALLPMLEMLLAQAWQSYSQRNSSLKDIDIARENNPDWILSNKQVGGVCYVDLFAGDLKGLKDKIPYFQELGLTYLHLMPLFKCPEGKSDGGYAVSSYRDVNPALGTIGDLREVIAALHEAGISAVVDFIFNHTSNEHEWAQRCAAGDPLFDNFYYIFPDRRMPDQYDRTLREIFPDQHPGGFSQLEDGRWVWTTFNSFQWDLNYSNPWVFRAMAGEMLFLANLGVDILRMDAVAFIWKQMGTSCENLPQAHALIRAFNAVMRIAAPAVFFKSEAIVHPDQVVQYIGQDECQIGYNPLQMALLWNTLATREVNLLHQALTYRHNLPEHTAWVNYVRSHDDIGWTFADEDAAYLGISGYDHRQFLNRFFVNRFDGSFARGVPFQYNPSTGDCQVSGTAAALVGLAQDDPHAVDRIKLLYSIALSTGGLPLIYLGDEVGTLNDDDWSQDSNKSDDSRWAHRPRYNEALYAQRNDPSTAAGQIYQDLRHMIAVRQSNPRFDGGRLVTFNTNNKHIIGYIRNNALLAFGNFSEYPQTVTAHTLQAMPFKAHDLIGGKTVSLNQDLTLQPYQVMWLEIA

assay: apigenin glucosylation acceptor reaction with recombinant glucansucrases (microplate screening); format: biochemical; settings: sucrose 146 mM, apigenin 2.5 mM, 3% DMSO, 30° C., 24 h; HPLC-UV 340 nm peak areas
Method: (§1) The enzymatic extracts obtained are used to carry out the flavonoid glucosylation enzymatic screening reactions. The enzymatic activity of each centrifuged cell lysate is evaluated in the microplate format, by final weight after 30 minutes incubation in the presence of a final concentration of 146 mM of sucrose, by assaying the reducing sugars with 3,5-dinitrosalicylic acid (DNS). Finally, after dilution in ultrapure water, the absorbance is read at 540 nm.
(§2) The flavonoid acceptor reactions are then carried out in deep-well microplates, in a volume of 300 μl, at final concentrations of sucrose of 146 mM and of flavonoid of 2.5 mM (apigenin) or 5 mM (naringenin) (initially dissolved in 100% DMSO), and 140 μl of centrifuged cell lysate.
(§3) The final DMSO concentration in the reaction medium is 3% (v/v).
(§4) The incubation is carried out at 30° C. and at 700 rpm. After 24 hours, the enzymes are denatured at 95° C. for 15 minutes. These microplates are stored at −80° C. with a view to rapid evaluation of the flavonoid glucosylation by liquid-phase chromatography coupled to mass spectrometry (HPLC-MS or LC-MS).
(§5) With a view to their analyses by HPLC-MS, the extensively homogenized reaction media are diluted to 1/30th in DMSO. The separation of the flavonoids and of their glucosylated forms is carried out in reverse phase with a ProntoSlL Eurobond® 53×3.0 mm 120-3-C18-AQ column (porosity of 120 Å, particle size of 3 μm, C18 grafting, Bischoff Chromatography, Germany).
(§6) The flavonoid glucosylation efficiency was determined from the following formula: Glucosylation efficiency=(Σ(area of the peak of glucosylated flavonoid(s)))/(Σ(area of the peak of glucosylated flavonoid(s))+area of the peak of residual aglycone flavonoid)×100
(§7) The flavonoid glucosylation efficiencies, expressed as a percentage, were calculated from the areas of the peaks of the various products analyzed, as described in example 1, by HPLC with a UV detector (340 nm) after 24 h of reaction.

Molecule	apigenin glucosylation efficiency
B1	0.0%
B2	1.9%
B3	0.9%
B4	0.2%
B5	0.1%
B6	0.7%
B7	0.4%
B8	0.2%
B9	1.2%
B10	0.3%
B11	0.4%
B12	1.9%

assay: naringenin glucosylation acceptor reaction with recombinant glucansucrases (microplate screening); format: biochemical; settings: sucrose 146 mM, naringenin 5 mM, 3% DMSO, 30° C., 24 h; HPLC-UV 340 nm peak areas
Method: as §1, §2, §3, §4, §5, §6
as §7, with “The flavonoid glucosylation efficiency was determined from the formula set out in example 2. The” for “The”, “(λ340 nm),” for “(340 nm)”

Molecule	naringenin glucosylation efficiency
B1	7.2%
B2	6.9%
B3	0.0%
B4	0.0%
B5	0.0%
B6	0.0%
B7	0.0%
B8	0.0%
B9	5.4%
B10	0.0%
B11	3.8%
B12	0.0%
